In patent US20090054344A1:

Biological target: αvβ3 integrin on C-PAE cells (bovine) (UniProt P80746)
Assay: C-PAE attachment to plates coated with 293-produced Tumstatin; 10 µg/ml peptide; competitor is the Tumstatin coat

Chain of αvβ3 integrin on C-PAE cells (bovine) (P80746 31-1048): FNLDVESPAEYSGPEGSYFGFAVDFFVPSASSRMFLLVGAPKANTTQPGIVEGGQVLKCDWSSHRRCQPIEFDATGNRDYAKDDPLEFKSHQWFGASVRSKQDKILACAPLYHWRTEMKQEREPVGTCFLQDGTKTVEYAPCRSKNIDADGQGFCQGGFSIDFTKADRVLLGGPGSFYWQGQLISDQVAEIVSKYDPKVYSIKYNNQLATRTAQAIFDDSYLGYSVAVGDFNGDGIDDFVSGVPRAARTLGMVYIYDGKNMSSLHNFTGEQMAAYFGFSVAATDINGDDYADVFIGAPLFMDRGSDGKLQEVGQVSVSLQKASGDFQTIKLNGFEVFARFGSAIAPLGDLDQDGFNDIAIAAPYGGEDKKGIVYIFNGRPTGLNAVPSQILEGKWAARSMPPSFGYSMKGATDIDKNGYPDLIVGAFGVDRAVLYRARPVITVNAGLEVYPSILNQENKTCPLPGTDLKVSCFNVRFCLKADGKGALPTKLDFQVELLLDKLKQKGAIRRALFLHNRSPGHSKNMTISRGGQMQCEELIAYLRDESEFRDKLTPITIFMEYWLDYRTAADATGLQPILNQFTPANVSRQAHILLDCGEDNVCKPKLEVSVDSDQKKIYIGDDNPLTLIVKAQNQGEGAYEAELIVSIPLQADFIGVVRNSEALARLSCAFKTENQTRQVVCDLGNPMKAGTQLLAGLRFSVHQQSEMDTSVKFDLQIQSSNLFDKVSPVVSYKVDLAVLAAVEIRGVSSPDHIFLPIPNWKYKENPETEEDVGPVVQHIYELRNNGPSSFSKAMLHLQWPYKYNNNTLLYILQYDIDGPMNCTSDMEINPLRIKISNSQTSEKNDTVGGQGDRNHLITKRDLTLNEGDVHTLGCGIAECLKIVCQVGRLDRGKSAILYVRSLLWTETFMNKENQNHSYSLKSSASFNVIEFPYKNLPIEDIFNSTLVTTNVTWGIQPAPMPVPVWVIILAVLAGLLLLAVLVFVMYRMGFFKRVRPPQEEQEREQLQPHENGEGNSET

LQRFTTMPFLFCNVNDVCNF [T3 peptide] gave a % inhibition of cell attachment of 46.4%.
